# Source: article PMC6161111, “Design, Synthesis, In Vitro, and Initial In Vivo Evaluation of Heterobivalent Peptidic Ligands Targeting Both NPY(Y1)- and GRP-Receptors—An Improvement for Breast Cancer Imaging?” (Pharmaceuticals, 2018)
# Where a SMILES comes first, the peptide text is derived from it. [ ]: non-standard residue; d: D form. The star is where a group is joined. DOTA = O=C(O)CN1CCN(CC(=O)O)CCN(CC(=O)*)CCN(CC(=O)O)CC1; Nle = CCCC[C@H](N)C(=O)O
# Tests used:
# [1] = test system: T-47D tumor-bearing mice; test: Ex vivo biodistribution in T-47D tumor-bearing mice; conditions: mouse, in vivo
# Method: (§1) In vivo experiments. All animal experiments were performed in compliance with the German animal protection laws and protocols of the local committee (Regierungspräsidium Karlsruhe, approval number: 35-9185.81/G-206/15). 20, six week old female immunodeficient Fox Chase SCID (CB17/Icr-Prkdc^scid/IcrIcoCrl) mice with an average weight of 20 g were subcutaneously implanted with 17β-estradiol pellets (0.36 mg/60 days). 4 days later, the tumors were induced by subcutaneous inoculation of 5 × 10^6 T-47D cells into the left flank of the […]. After induction, the tumors were allowed to grow for 8–10 weeks and reached a diameter of about 0.5 cm. For imaging, the animals were anaesthetized with isoflurane and injected with 5.5–8.0 MBq of the respective radioligand ([^68Ga]24, [^68Ga]24a or [^68Ga]24b) into the lateral tail vein. Dynamic PET images were acquired over 90 min and CT images were obtained within further 30 min. After the end of the diagnostic scan, the animals were sacrificed, the organs were collected and measured in a gamma-counter.
# [2] = as above; conditions: female, Fox Chase SCID (CB17/Icr-Prkdc^scid/IcrIcoCrl), mouse, in vivo, iv, total radioactivity
# Method: as §1
# [3] = Determination of radiotracer lipophilicity (logD, phosphate buffer/1-octanol); type: physicochemical; conditions: phosphate buffer (0.05 M, pH 7.4) / 1-octanol, six independent experiments
# Method: Determination of radiotracer lipophilicity. The heterobivalent ligands (22–26) as well as the monomeric reference compounds (27 and 28) were radiolabeled with ^68Ga as described before and 2 µL of the product solution (~65 pmol of the respective radioligand) were added to a mixture of phosphate buffer (0.05 M, pH 7.4, 800 µL) and 1-octanol (800 µL) and incubated for 5 min at ambient temperature under vigorous shaking. Both phases were separated by centrifugation and 100 µL of each phase were measured for radioactivity in a gamma-counter. […] (cpm = counts per minute), cpmw = activity in the aqueous phase [cpm]. These experiments were performed six times independently.
# [4] = test system: T-47D cells; test: In vitro cell uptake (internalization) study in T-47D cells; type: cell-based, human; conditions: after 4 h, % of total added activity
# Method: Cell culture. All cell lines were grown in suitable culture medium at 37 °C in a humidified CO2 (5%) atmosphere. The human breast cancer cell lines T-47D, MDA-MB-231 and MCF-7 were grown in Dulbecco’s Modified Eagle Medium (DMEM), supplemented with 10% (v/v) fetal calf serum (FCS) and 1% (v/v) L-Glutamine. For a high expression of the NPY(Y1) receptor on T-47D cells, the medium for this cell line was further supplemented with 0.15% (w/v) β-estradiol. The BT-474 and PC-3 cell lines were grown in RPMI-1640 medium, also supplemented with 10% (v/v) fetal calf serum (FCS) and 1% (v/v) L-Glutamine.
# Internalization studies. Cells (T-47D, MDA-MB-231, MCF-7, BT-474 and PC-3, 1.5 × 10^6 cells per well) were seeded into 6-well plates and incubated overnight at 37 °C in a humidified CO2 (5%) atmosphere. The next day, the medium was removed and the cells were washed twice with the respective medium without supplements (ice-cold, 1 mL) and incubated with 3.7–4.0 kBq (0.37–4.0 pmol) of the respective ^68Ga-radiolabeled ligand [^68Ga]22−[^68Ga]26, [^68Ga]27 or [^68Ga]28 (in 1.5 mL medium, containing 0.5% (w/v) BSA) for defined time-points of 1, 2, 3 or 4 h at 37 °C in a humidified CO2 (5%) atmosphere. A 1000-fold excess of the respective peptide (3 or 4) was used for blocking to determine the non-specific cell uptake. At each time point, the medium was removed and the cells were washed twice with the respective medium without supplements (ice-cold, 1 mL). Cells were treated twice with 1 mL glycine buffer (ice-cold, 50 mM glycine, 100 mM NaCl, pH 2.8) for 5 min at room temperature, followed by 2 mL NaOH solution (1 M) for 10 min at 37 °C. The supernatants were collected and the radioactivity measured in a gamma counter. The internalized and surface bound activity was expressed as percentage of measured to total added activity. Each data point was generated thrice in triplicates.
compound,measurement,setting,value
"CCCC[C@H](NC(=O)[C@H](CCCCNC(=O)CON=Cc1ccc(C(=O)NCCOCCOCCOCCOCCC(=O)NCCCN(CCCNC(=O)CCOCCOCCOCCOCCNC(=O)c2ccc(C=NOCC(=O)NCCOCCOCCOCCOCCC(=O)N[C@@H](CCC(N)=O)C(=O)N[C@@H](Cc3c[nH]c4ccccc34)C(=O)N[C@@H](C)C(=O)N[C@H](C(=O)NCC(=O)N[C@@H](Cc3c[nH]cn3)C(=O)N[C@@H](CC(C)C)C(=O)N[C@@H](CCSC)C(N)=O)C(C)C)cc2)CC(=O)NCCOCCOCCOCCOCCC(=O)N[C@@H](CCCCNC(=O)CCC(C(=O)O)N2CCN(CC(=O)O)CCN(CC(=O)O)CC2)C(N)=O)cc1)NC(=O)[C@H](CC(N)=O)NC(=O)[C@H](Cc1ccc(O)cc1)NC(=O)[C@@H]1CCCN1)C(=O)N[C@@H](CCCNC(=N)N)C(=O)N[C@@H](CCCNC(=N)N)C(=O)N[C@@H](Cc1c[nH]c2ccccc12)C(=O)N[C@H](C(N)=O)[C@@H](C)CC (stereo partly shown) [[^68Ga]24b, metal not drawn]",adrenal glands uptake,[1],2.91 ± 1.13 ID/g in %
same,blood uptake,[1],2.02 ± 1.34 ID/g in %
same,bone uptake,[1],0.43 ± 0.23 ID/g in %
same,brain uptake,[1],0.07 ± 0.04 ID/g in %
same,heart uptake,[1],0.85 ± 0.52 ID/g in %
same,kidneys uptake,[1],43.84 ± 25.05 ID/g in %
same,large intestines uptake,[1],1.71 ± 0.69 ID/g in %
same,liver uptake,[1],16.75 ± 0.85 ID/g in %
same,lung uptake,[1],0.88 ± 0.07 ID/g in %
same,muscle uptake,[1],0.48 ± 0.40 ID/g in %
same,pancreas uptake,[1],8.30 ± 5.33 ID/g in %
same,small intestines uptake,[1],1.53 ± 0.51 ID/g in %
same,spleen uptake,[1],2.12 ± 0.49 ID/g in %
same,stomach uptake,[1],1.35 ± 0.43 ID/g in %
same,tail uptake,[1],1.64 ± 0.94 ID/g in %
same,tumor uptake,[1],1.84 ± 0.32 ID/g in %
same,tissue to tissue ratio at 130 min,[2]; tumor-to-blood ratio (T / B),0.91 ± 0.24
same,tissue to tissue ratio at 130 min,[2]; tumor-to-muscle ratio (T / M),3.83 ± 0.8
"CCCC[C@H](NC(=O)[C@H](CCCNC(=N)N)NC(=O)[C@H](Cc1c[nH]c2ccccc12)NC(=O)[C@H](CCCCNC(=O)CON=Cc1ccc(C(=O)NC2CCN(CC(=O)NCCCN(CCCNC(=O)CN3CCC(NC(=O)c4ccc(C=NOCC(=O)NCCOCCOCCOCCOCCC(=O)N[C@@H](CCC(N)=O)C(=O)N[C@@H](Cc5c[nH]c6ccccc56)C(=O)N[C@@H](C)C(=O)N[C@H](C(=O)NCC(=O)N[C@@H](Cc5c[nH]cn5)C(=O)N[C@@H](CC(C)C)C(=O)N[C@@H](CCSC)C(N)=O)C(C)C)cc4)CC3)CC(=O)NCCOCCOCCOCCOCCC(=O)N[C@@H](CCCCNC(=O)CCC(C(=O)O)N3CCN(CC(=O)O)CCN(CC(=O)O)CC3)C(N)=O)CC2)cc1)NC(=O)[C@@H]1CCCN1C(=O)[C@H](CC(N)=O)NC(=O)[C@@H](N)[C@@H](C)CC)C(=O)N[C@@H](CCCNC(=N)N)C(=O)N[C@@H](Cc1ccc(O)cc1)C(N)=O (stereo partly shown) [[^68Ga]25, metal not drawn]",logD,[3],-1.55 ± 0.114
same,specific cell uptake,[4],48.2 ± 2.8%
"CSCC[C@H](NC(=O)[C@H](CC(C)C)NC(=O)[C@H](Cc1c[nH]cn1)NC(=O)CNC(=O)[C@@H](NC(=O)[C@H](C)NC(=O)[C@H](Cc1c[nH]c2ccccc12)NC(=O)[C@H](CCC(N)=O)NC(=O)CCOCCOCCOCCOCCNC(=O)CN1CCN(CC(=O)O)CCN(CC(=O)O)CCN(CC(=O)O)CC1)C(C)C)C(N)=O [[^68Ga]27, metal not drawn, reference compound]",logD,[3],-1.86 ± 0.054
"CCCC[C@H](NC(=O)[C@H](CCCNC(=N)N)NC(=O)[C@H](Cc1c[nH]c2ccccc12)NC(=O)[C@H](CCCCNC(=O)CN1CCN(CC(=O)O)CCN(CC(=O)O)CCN(CC(=O)O)CC1)NC(=O)[C@@H]1CCCN1C(=O)[C@H](CC(N)=O)NC(=O)[C@@H](N)[C@@H](C)CC)C(=O)N[C@@H](CCCNC(=N)N)C(=O)N[C@@H](Cc1ccc(O)cc1)C(N)=O [[^68Ga]28, metal not drawn, reference compound] (H-INPK(DOTA)WR[Nle]RY-NH2)",logD,[3],-1.98 ± 0.162
